Experimental data taken from US20060153844A1, “Methods to trigger, maintain and manipulate immune responses by targeted administration of biological response modifiers into lymphoid organs” (priority 2004, published 2006).

Test system: PLA2-specific IgG2a and IgG1 antibodies
Experiment: anti-PLA2 IgG2a, IgG1 and IgE in sera after intralymphatic PLA2 plus TLR ligand
Assay type: in vivo, CBA/J mice
Procedure: The compounds were mixed within an hour before injection into the inguinal lymph node.
The sera were obtained over 13 weeks and analyzed by ELISA for anti-PLA2 IgG2a (FIG. 10A) and IgG1 (FIG. 10B). The ratio of IgG2a to IgG1 titers was calculated as a measure for Th1/Th2 immune response balance (FIG. 10C). […] Pre-immunization levels of anti-PLA2 antibodies were measured on sera from five mice taken the day before first injection.

B1: flagellin: flagellin, S. thyphimurium, TLR 5 ligand (protein, UniProt P06179 2-495, looked up)
Flagellin: AQVINTNSLSLLTQNNLNKSQSALGTAIERLSSGLRINSAKDDAAGQAIANRFTANIKGLTQASRNANDGISIAQTTEGALNEINNNLQRVRELAVQSANSTNSQSDLDSIQAEITQRLNEIDRVSGQTQFNGVKVLAQDNTLTIQVGANDGETIDIDLKQINSQTLGLDTLNVQQKYKVSDTAATVTGYADTTIALDNSTFKASATGLGGTDQKIDGDLKFDDTTGKYYAKVTVTGGTGKDGYYEVSVDKTNGEVTLAGGATSPLTGGLPATATEDVKNVQVANADLTEAKAALTAAGVTGTASVVKMSYTDNNGKTIDGGLAVKVGDDYYSATQNKDGSISINTTKYTADDGTSKTALNKLGGADGKTEVVSIGGKTYAASKAEGHNFKAQPDLAEAAATTTENPLQKIDAALAQVDTLRSDLGAVQNRFNSAITNLGNTVNNLTSARSRIEDSDYATEVSNMSRAQILQQAGTSVLAQANQVPQNVLSLLR
kinetics of the antibody production (time of maximum titers) (i.ln. with 0.1 μg PLA2, sera over 13 weeks): peak titers were delayed | anti-PLA2 antibody isotypes induced (IgG2a, IgG1) (i.ln. with 0.1 μg PLA2, three injections): induced both IgG2a and IgG1
